{"source": "paper PMC4919469", "key": {"[1]": {"target": "Cdc42Δ7Q61L (human) (UniProt P60953)", "sequence (P60953 1-184 Q61L)": "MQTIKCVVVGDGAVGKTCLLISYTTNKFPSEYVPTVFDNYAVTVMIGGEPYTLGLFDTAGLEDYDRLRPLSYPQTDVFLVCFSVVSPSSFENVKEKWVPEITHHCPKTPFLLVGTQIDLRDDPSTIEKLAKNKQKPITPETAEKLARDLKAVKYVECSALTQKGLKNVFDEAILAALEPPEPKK", "test": "scintillation proximity assay; competition; free effector domain titrated into 30 nM Cdc42·[3H]GTP and 30 nM GST-ACK (in Fig. 7B GST-ACK or GST-WASP GBD) immobilised on a fluoromicrosphere; Kd from competition binding isotherms"}, "[2]": {"target": "full-length Cdc42Q61L (human) (UniProt P60953)", "sequence (P60953 whole entry Q61L, the tested form may be a part)": "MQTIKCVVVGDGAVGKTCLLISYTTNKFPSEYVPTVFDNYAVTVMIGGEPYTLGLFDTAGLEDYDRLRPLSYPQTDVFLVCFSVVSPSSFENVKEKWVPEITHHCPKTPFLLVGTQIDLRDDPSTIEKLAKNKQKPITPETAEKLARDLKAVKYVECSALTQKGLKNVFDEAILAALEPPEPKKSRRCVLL", "test": "scintillation proximity assay; competition; free effector domain titrated into 30 nM Cdc42·[3H]GTP and 30 nM GST-ACK (in Fig. 7B GST-ACK or GST-WASP GBD) immobilised on a fluoromicrosphere; Kd from competition binding isotherms"}}, "data": [{"substance": "free ACK GBD (domain or fragment)", "values": [{"measurement": "Kd", "setting": "[1]", "result": 32, "unit": "nM"}, {"measurement": "Kd", "setting": "[2]", "result": 11, "unit": "nM"}]}]}
